Source: US20230390363A1, “Compounds, Compositions and Methods of Use to Treat Spinal Fusions” (PURDUE RESEARCH FOUNDATION, priority 2020, published 2023)
Non-standard residues stand in square brackets, D forms with d. Aib = CC(C)(N)C(=O)O

Tested on: posterolateral spinal fusion of L4-L5
Assay: Posterolateral spinal fusion of L4-L5 in rats: micro-CT and manual palpitation after treatment
Format: in vivo, rat
Settings: for spinal fusion (micro-CT, manual palpitation): plain collagen matrix, rhBMP-2 10 μg soaked in matrix
Experimental: FIG. 6, panels A-C show three-dimensional reconstructions of micro-CT scans of a posterolateral spinal fusion of L4-L5 in a rat treated with a plain collagen matrix and a compound of SEQ ID NO: 2 for eight weeks. In some embodiments, SEQ ID NO: 2 was dosed (e.g., in rodents) at 33 nmol/kg twice a week. […] In some embodiments, the collagen matrix was applied during surgery. […] In some embodiments, phosphate-buffered saline was dosed at a 1× concentration twice a week in the same volume as SEQ ID NO: 2. […] Scores were assigned 0-5 on osteointegration, density, and bridging of both bilateral spinal fusions in microCT scans of the rats as determined by an individual who was blinded to the treatment and reviewed random samples. The total score is the sum of all five scores combined. […] The density of the scan was assigned based on a standard curve generated by a phantom hydroxyapatite standard set. A bilateral posterolateral lumbar spinal fusion was performed under aseptic conditions using isoflurane as an anesthetic. The skin surrounding the L2-L6 region on the back was shaved and disinfected using a Betadine solution followed by an alcohol pad. A 3-cm incision extending from the L3 to L6 vertebrae was made in the skin in this prepared area. The muscle on the vertebral body between the spinous process and the transverses process was bluntly dissected away from the vertebral body to expose the transverses processes. Using a low-speed burr, the L4 and L5 transverse processes cortical bone was removed in addition to the facia joint between the two vertebrae. The burr removed the surface layer of the bone. This process is known as decortication and was done to allow for direct regeneration of bone tissue. Following decortication, a drug-soaked collagen sponge was placed on each side of the vertebrae. A 5×7.5-mm collagen sponge was soaked to saturation in the drugs for 10 minutes. The collagen sponge (RCM6 membranes from ACE surgical supplies) served as a scaffold to aid in the fusion of the vertebrae. Mineralized collagen scaffolds (supplied by Houston Methodist, Houston, TX) and collagen scaffolds wrapped around anorganic bone granules (InterOss bone granules; SigmaGraft Inc. Biomaterials, Fullerton, CA) were also separately used. The inter-muscle was closed with resorbable sutures. The exterior wound was then sutured closed using a nylon suture. Subcutaneous buprenorphine (0.05-0.1 mg/kg) was then administered directly after the operation and was repeated every 12 hours for the next 3 days post-surgery. Fracture healing was assessed using micro-CT (Scanco Medical Ag or PerkinElmer). The anesthetized animal was scanned for two minutes with the PerkinElmer Quantum FX micro-CT at high resolution with a voxel size of 10 μM at 90 kV and 88 uA and an Al 0.5 mm+Cu 0.06 mm filter. The scanning detector rate was 117 fps. The images were analyzed in ImageJ using the BoneJ package. Morphometric parameters were quantified in an ROI that included just the fracture callus. Trabecular thickness (Tb.Th.), trabecular spacing (Tb. Sp.), total volume (TV), and volume of calcified callus (BV) were calculated. Statistical analysis was performed using a one-way analysis of variance (ANOVA) and a Dunnett's post-hoc analysis with significance reported at the P value of 0.05. All animal experiments were performed in accordance with protocols approved by Purdue University's Institutional Animal Care and Use Committee (IACUC). Rats were scanned in AMI after being anesthetized with isoflurane.

B1: H-AVSEHQLLHDKGKSIQDLRRRELLEKLLxKLHTAEIRATSEVSPNSeeeeeeeeeeeeeeeeeeee (peptide)
chain: H-AVSEHQLLHDKGKSIQDLRRRELLEKLL[Aib]KLHTAEIRATSEVSPNS[dE][dE][dE][dE][dE][dE][dE][dE][dE][dE][dE][dE][dE][dE][dE][dE][dE][dE][dE][dE]
notes: PTHrP fragment conjugated at its C-terminus to a linear peptide of 20 D-glutamic acid residues; x=Aib, e=D-glutamic acid
- change of bone graft granules on micro-CT (bone graft matrix, eight weeks): the granules resorb
- spinal fusion (manual palpitation) (bone graft matrix, eight weeks, SEQ ID NO: 2 33 nmol/kg twice a week, rhBMP-2 10 μg): no fusion
- spinal fusion (micro-CT) (mineralized collagen scaffold, eight weeks of treatment): none of the treatments had fused
- mineralization of the scaffolds (micro-CT) (mineralized collagen scaffold, five weeks of treatment, preliminary results): increased the mineralization of the scaffolds more than BMP2 or saline
- spinal fusion (micro-CT, manual palpitation) (eight weeks, SEQ ID NO: 2 33 nmol/kg twice a week): Fusion was confirmed
- spinal fusion (micro-CT, manual palpitation) (eight weeks, SEQ ID NO: 2 33 nmol/kg twice a week, listed as SEQ ID NO.: 2): fused
